Reference: the Human Domainome abundance scans (Beltran et al. 2025)

B1: Zinc finger protein ZIC 2, residues 250 to 295; numbered along this chain, O95409 (parent)
chain: QCIKQELICKWIDPEQLSNPKKSCNKTFSTMHELVTHVSVEHVGGP

Variants of: B1
Assay: abundance fitness (aPCA) (normalised: wild type 0, dead -1); higher = more abundant; growth selection in yeast, the domain comes from the species named
Details: Homo sapiens

Abundance fitness, by site and new letter:
S18: P -0.171, E -0.394, Y -0.317, C -0.06, G -0.427, F -0.15, D -0.125, R -0.198, A -0.348, N 0.286, K 0.282, T 0.118, V -0.485, H -0.389, L -0.145, I -0.409, M -0.348, Q -0.36, W -0.265
P14: K -0.885, Y -0.499, A -0.316, N -0.123, E -0.216, M -0.334, G -0.237, V -0.369, H -0.199, S -0.28, R -0.2, L -0.434, C -0.33, F -0.788, Q -0.449, D -0.65, I -0.975, T -0.377, W -0.484
K10: T 0.33, H 0.236, N 0.394, C -0.19, F -0.506, D 0.018, G -0.138, V -0.4, Y 0.165, W -0.277, I -0.484, E 0.157, Q 0.205, L -0.248, A -0.193, P -0.45
I12: Q -0.144, Y -0.175, K -0.085, M -0.077, D -0.064, N -0.417, G -0.278, A -0.363, R -0.228, S -0.022, H 0.098, P 0.018, C 0.013, F -0.179, T 0.041, E 0.111, L -0.551
L17: I 0.067, R -0.304, Y -0.564, C -0.245, H -0.662, Q -0.173, G -0.363, N 0.124, T 0.035, W -0.623, S -0.111, F 0.143, P 0.101, V 0.11, A 0.084, E 0.306, D 0.176, K -0.071
Q16: Y -0.211, M -0.25, D -0.074, G -0.251, H -0.077, W -0.069, F -0.376, C -0.014, L 0.068, T -0.051, V -0.302, P -0.285, A -0.144, E -0.397, K -0.335, R -0.432, I -0.11, N -0.414, S 0.073
N19: S -0.079, R -0.053, F -0.166, Q 0.132, T 0.118, A -0.131, K -0.012, V 0.007, W -0.74, C -0.957, I 0.164, E -0.006, H 0.056, D -0.092, Y -0.451, M -0.067, P -0.104, L -0.17
E15: G -0.145, S 0.018, K 0.077, P -0.388, D -0.254, W -0.206, F -0.23, I 0.051, A 0.077, Y -0.14, R -0.217, V -0.137, H -0.233, C -0.132, L 0.104, T -0.31, M -0.079, Q -0.406
C9: K -0.473, H -1.03, W -1.03, E -0.578, A -0.651, Q -0.675, F -0.975, V -0.841, D -0.758, I -0.96, P -0.776, Y -0.829, S -0.78, L -0.863, G -0.714, M -0.822
P20: L -0.184, A -0.235, V -0.111, H -0.883, Y -0.621, K -0.233, M -0.076, W -0.521, Q -0.264, I -0.498, F -0.356, E -0.046, D 0.057, T -0.554, R -0.416, N -0.121, C -0.832
I8: S 0.02, Y -0.245, N 0.586, W -0.31, G 0.036, L -0.056, M 0.031, H 0.033, K 0.4, V 0.086, C -0.177, T 0.041, R 0.241, D 0.384, Q 0.171
S23: V 0.107, H 0.156, C 0.029, Y 0.079, M 0.246, P 0.043, F 0.14, K 0.309, W -0.01, A 0.316, G 0.111, T 0.193, I 0.095, Q 0.226, L 0.282, R 0.566, E 0.002, D -0.287
C24: V -0.86, Q -0.764, Y -0.994, P -0.889, K -0.979, M -0.906, S -0.766, R -0.841, E -0.488, H -0.698, L -0.901, G -0.61, T -0.8, F -1.05, A -0.836, W -0.868, I -1.12, N -0.798
W11: D -0.647, R 0.037, Y 0.005, T -0.413, M -0.146, E 0.117, A -0.223, H 0.002, K 0.216, C -0.712, P -0.348, V -0.115, G -0.089, Q 0.241, S -0.212, L -0.079, F 0.187, N -0.216
N25: D -0.047, R 0.281, Q 0.17, I -0.469, K 0.044, A 0.507, V -0.302, P 0.199, H 0.183, T 0.072, Y -0.33, L 0.083, W -0.453, M -0.019, G 0.3, F -0.517
K21: H 0.016, G -0.12, L -0.091, Y -0.095, C -0.673, N 0.314, A -0.008, Q 0.126, F 0.01, M -0.203, V -0.116, E 0.078, P 0.028, I -0.153, W -0.102, T -0.168, R -0.302, S -0.178
T27: R -0.025, I 0.381, S -0.001, C -0.17, L -0.19, M 0.182, Q 0.119, F 0.174, H -0.449, A -0.116, E 0.188, N 0.001, G 0.104, D 0.072
K22: R 0.124, T -0.015, Y -0.376, H -0.006, G -0.126, A -0.175, E -0.285, M -0.126, W -0.404, L -0.089, N 0.224, Q -0.166, V 0.037, D -0.035, C -0.349, S -0.102, F -0.332, P -0.095
D13: V -0.434, K -0.66, Q -0.492, W -0.311, C -0.176, F 0.041, S -0.352, R -0.442, A -0.101, P -0.387, T -0.81, G -0.328, M -0.568, I -0.559, H -0.216, E -0.235
L7: Y -0.152, R 0.044, V 0.08, Q 0.401, T 0.001, W -0.223
